{
  "source": "paper PMC6077130",
  "about": "(Heliyon, 2018)",
  "binders": {"B1": {"name": "full length PIASy fused to the Gal4 AD (VP16-PIASy) (natural protein, UniProt Q9JM05 1-507, looked up)", "chain": "MAAELVEAKNMVMSFRVSDLQMLLGFVGRSKSGLKHELVTRALQLVQFDCSPELFKKIKELYETRYAKKSAEPGPQAPRPLDPLALHSMPRTPLSGPTVDYPVLYGKYLNGLGRLPTKTLKPEVRLVKLPFFNMLDELLKPTELVPQSAEKLQESPCIFALTPRQVEMIRNSRELQPGVKAVQVVLRICYSDTSCPQEDQYPPNIAVKVNHSYCSVPGYYPSNKPGVEPKRPCRPINLTHLMYLSSATNRITVTWGNYGKSYSVALYLVRQLTSSDLLQRLKTIGVKHPELCKALVKEKLRLDPDSEIATTGVRVSLICPLVKMRLSVPCRAETCAHLQCFDAVFYLQMNEKKPTWMCPVCDKPAAYDQLIIDGLLSKILSECEGADEIEFLAEGSWRPIRAEKEPSCSPQGPILVLGTSDANGLAPASSTPGIGSGLSGPGSAGSGAGAAGSLENGKTGADVVDLTLDSSSSSEDEDEDEDDDEDEDEGPRPKRRCPFQKGLVPAC"}},
  "target": "T1, N-terminus of Glis3 (aa 1-653) fused to the Gal4 DBD (mouse, UniProt F6SGN4 1-653)",
  "T1 sequence (looked up)": "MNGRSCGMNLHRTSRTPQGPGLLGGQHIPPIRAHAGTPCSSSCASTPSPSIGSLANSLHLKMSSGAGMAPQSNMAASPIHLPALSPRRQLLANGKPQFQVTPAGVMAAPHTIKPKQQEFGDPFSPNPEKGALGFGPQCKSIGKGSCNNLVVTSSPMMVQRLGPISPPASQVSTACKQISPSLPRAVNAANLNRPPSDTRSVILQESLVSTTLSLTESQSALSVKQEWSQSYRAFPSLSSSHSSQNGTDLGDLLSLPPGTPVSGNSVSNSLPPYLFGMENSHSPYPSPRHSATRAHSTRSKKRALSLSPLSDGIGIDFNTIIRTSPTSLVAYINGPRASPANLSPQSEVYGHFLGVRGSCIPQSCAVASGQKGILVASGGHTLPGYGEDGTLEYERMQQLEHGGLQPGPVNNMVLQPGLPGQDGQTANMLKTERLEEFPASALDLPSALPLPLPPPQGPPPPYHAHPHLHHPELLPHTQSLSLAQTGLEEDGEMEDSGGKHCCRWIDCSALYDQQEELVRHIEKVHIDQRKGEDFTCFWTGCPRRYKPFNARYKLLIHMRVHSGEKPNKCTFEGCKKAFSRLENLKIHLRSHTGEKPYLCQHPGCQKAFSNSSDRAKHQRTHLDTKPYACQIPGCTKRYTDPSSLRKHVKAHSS",
  "assay": "two-hybrid",
  "data": [
    {"binder": "B1", "values": [
      {"measurement": "fold increase in luciferase expression (two-hybrid, chimeras co-expressed)", "result": 1.5, "unit": "fold"}
    ]}
  ]
}
